Data published in the nanobody polyreactivity screen of Harvey et al. (2022).

Experiment: yeast display, Sf9 membrane polyspecificity reagent, FACS + sequencing; frameworks hold sequencing errors
Procedure, shortened: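 Polyreactivity labels are assigned by the sorting gate from which each nanobody was recovered. The gates were low and high (top ~1%), set on anti-HA fluorescence for expression and streptavidin fluorescence for reagent binding. Before sorting, galactose-induced (36–48 hours) yeast display cells were stained for 1 hour at 4 °C with 10% biotinylated, detergent-solubilized Sf9 membrane reagent.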

Sequence	polyreactivity (PSR sort gate)
QVQLVESGGGLVQAGGSLRLSCAASGRIFVSNAMGWYRQAHGKERELVAGITWTSGSTYYADSVKGRFTISRDNAKNTVYLLMNSLKPEDTAVYYCAAEYWYGNAFDYWGEGTQVTVSS	low polyreactivity
QVQLVESGGGLVQAGGSLRLSCAASGRIFVSYAMGWYRQAPGKERELVAAISSSGGSTYYADSVKGRFTISRDNAKNTVYLQMNSLKPEDTAVYYCNTDQRSRMDYWGQGTQVTVSS	low polyreactivity
QVQLVESGGGLVQAGGSLRLSCAASGRIFVSYAMGWYRQAPGKERELVAAITYSVDSTYYADSVKGRFTISRDNAKNTVYLQMNSLKPEDTAVSYCATDVDWAYGYQYEYWGQGTQVTVSS	low polyreactivity
QVQLVESGGGLVQAGGSLRLSCAASGRIFVSYTMGWYRQAPGKERELVAAISTDATTNYADSVKGRFTISRDNAKNTVYLQMNSLKPEDTAVYYCAADPFEYSYYTLYTSNPFYYWGQGTQVTVSS	low polyreactivity
QVQLVESGGGLVQAGGSLRLSCAASGRIFVTNAMGWSRQGPGKERELVAAISYRGGRTYYADSVKGRFTISRDNAKNTVYLQMNSLKPEDTAVYYCNAVTRWPFDYWGQGTQVTVSS	high polyreactivity
QVQLVESGGGLVQAGGSLRLSCAASGRIFVTYAMGWYRQAPGKERELVAAIPWDGDSTYYADSVKGRFTISRDNAKNTVYLQMNSLKPEDTAVYYCNAKKFNSHVELGYDYWGQGTQVTVSS	low polyreactivity
QVQLVESGGGLVQAGGSLRLSCAASGRIFVVNAMGWYRQAPGKERELVATITRGASTYADSVKGRFTISRDNAKNTVYLQMNSLKLEDTAVYYCAAAKRPQVVRYDWTKLEYWGQGTQVTVSS	high polyreactivity
QVQLVESGGGLVQAGGSLRLSCAASGRIFVVYAMGWYRQAPGKERELVAAITSSGNTNYADSVKGRFTISRDNAKNTVYLQMNSLKPEDTAVYYCAATRDYSSDYWGQGTEVTVSS	low polyreactivity
QVQLVESGGGLVQAGGSLRLSCAASGRIFVVYAMGWYRQAPGKERELVASITWRGGSTYYADSVKGRFTISRDNAKNTVYLQMNSLKPEDTAVYYCAARYARYLLYDYWGQGTQVTVSS	low polyreactivity
QVQLVESGGGLVQAGGSLRLSCAASGRIFVWNTMGWYRQAPGKERELVAAITSGGSTTYADSVKGRFTISRDNAKNSVSFQMNSLKPEDTAVYYCNTELDLYHPGDDYWGQGTQVTVSS	high polyreactivity
QVQLVESGGGLVQAGGSLRLSCAASGRIFVYNAMGSYRQAPGKERELVAAINSGTITNSADSVKGRFTISRDNGKNTVYLQMNSRIPEDTAVSYCAAPWYPSTDYNYWGQGTQVTVSS	low polyreactivity
QVQLVESGGGLVQAGGSLRLSCAASGRIFVYNAMGWYRQAPGKEWELVATITSGGSTYYADSVKGRFTISRDNAMNTVYLQMNSLKPEDTAVYYCAARRWYVHYFAYGYWGQGTQVTVSS	low polyreactivity
QVQLVESGGGLVQAGGSLRLSCAASGRIFVYYAMGWYRQAPGKERELVAAISSSGGSTYYADSVKGRFTISRDNAKNTVYLQMNSLKPEDTAVYYCNAVTYFSLSYPRHDYWGQGTQVTVSS	high polyreactivity
QVQLVESGGGLVQAGGSLRLSCAASGRIFVYYAMGWYRQAPGKERELVAAITASGASTYYADSVKGRFTISRDNAKNTVYLQMNSLKPEDTAVYYCNVLYPRKYWQVREYYWGQGTQVTVSS	high polyreactivity
QVQLVESGGGLVQAGGSLRLSCAASGRIFVYYAMGWYRQAPGKERELVAAITYSVDSTYYADSVKGRFTISRDNAKNTVYLQMNSLKPEDTAVYDCATDVDWAYGYQYEYWGQGTQVTVSS	low polyreactivity
QVQLVESGGGLVQAGGSLRLSCAASGRIFVYYTMGWYRQAPGKERELVAAITGSGGSTYYADSVKGRFTISRDNAKNTVYLQMNCLKPEDTAVYYCAARYASTGGGYKYYYWGQGTQVTVSS	high polyreactivity
QVQLVESGGGLVQAGGSLRLSCAASGRIFVYYTMGWYRQAPGKERELVAAITGSGGSTYYADSVKGRFTISRDNAKNTVYLQMNSLKPEDTAVYYCAAQLGWWGSGYWGQGTQVTVSS	high polyreactivity
QVQLVESGGGLVQAGGSLRLSCAASGRIFWANAMGWYRQAPGKERELVAAISYSGVSTYYADSVKGRFTISRDNAKNTVYLQMNSLIPEDTAVYYCAADRYRKYYYWGQGTQVTVSS	high polyreactivity
QVQLVESGGGLVQAGGSLRLSCAASGRIFWANTMGWYRQAPGKERELVAAITYSGDSTYYADSVKGRFTISRDNAKNTVYLQMNSLKPEDTAVYYCNAVPSKFSWAVYRGQYDYDYWGQGTQVTVSS	low polyreactivity
QVQLVESGGGLVQAGGSLRLSCAASGRIFWAYAMGWYRQAPGKERELVAAINGSGGSTNYADSVKGRFTISRDNAKNTVYLQMNSLIPEDTAVYYCAADWSLRLYDYWGQGTQVTVSS	low polyreactivity
QVQLVESGGGLVQAGGSLRLSCAASGRIFWDNAMGWYRQAPGKERELVAAIDYRGGNTNYADSVKGRFTISRDNAKNTVYLQMNSLKPEDTAVYYCNAEWAVRYPGYDYWGQGTQVTVSS	low polyreactivity

Sequence	polyreactivity (PSR sort gate)
QVQLVESGGGLVQAGGSLRLSCAASGRIFWDNAMGWYRQAPGKERELVAAISDSVVITYYADSVKGRFTISRDTAKNTVYLQMNSLKPEDTAVYYCGADKRGTVYLSSFWMDYWGQGTQVTVSS	low polyreactivity
QVQLVESGGGLVQAGGSLRLSCAASGRIFWDYAMGWYRQAPGKERELVAGISYSGGSTSYADSVKGRFTISRDNAKNTVYLQMKSLKPEDTAVYYCAAGPSGTFFRDYDYWGQGTQVTVSS	low polyreactivity
QVQLVESGGGLVQAGGSLRLSCAASGRIFWDYAMGWYRQAPGKERELVAVITFSGDSTYYADSVKGRFTISRDNAKNTVYLQMNSLKPEDTAVYYCAAARAIRQFWYVATFEYWGQGTQVTVSS	low polyreactivity
QVQLVESGGGLVQAGGSLRLSCAASGRIFWFNAMGWYRQAPGKERELVAAISGGSTNYADSVKGRFTISRDNAKNTVYLQMNSLKPEDTAVYYCAARYLRRYNWGQGTQVTVSS	high polyreactivity
QVQLVESGGGLVQAGGSLRLSCAASGRIFWGNAMGWYRQAPGKEWELVAAITRRGGTTFYADSVKGRFTISRDNAKNTVYLQMNSLKPEDTAVYYCAARRYGQYDGYDSWGQGTQVTVSS	high polyreactivity
QVQLVESGGGLVQAGGSLRLSCAASGRIFWGYAMGWYRQAPGKERELVAAISWSGGSTYYADSVKGRFTISRDNAKNTVYLQMNSLKPEDTAVYYCNAYSDGDEDYWGQGTQVTVSS	low polyreactivity
QVQLVESGGGLVQAGGSLRLSCAASGRIFWHNAMGWYRQAPGQERELVAAITGGGSTYYADSVKGRFSISRDDAKNTVYLQMNSLKPEDTAVYYCATLGSLRYYWPGYDYWGQGTQVTVSS	low polyreactivity
QVQLVESGGGLVQAGGSLRLSCAASGRIFWHNTMGWYRQAPGKERELVATITGGDGNTYYADSVKGRFTISRDNAKNTVYLQMNSLKPEDNAVYYCAKAIVSYDYGRYGKWHEYWGQGTQVTVSS	low polyreactivity
QVQLVESGGGLVQAGGSLRLSCAASGRIFWQYAMGWYRQAPGNERELVAGITSNGGSTYYADSVKGRFTISRDNAKNTVYLQMNSLKPEDTAVYYCNKVRPGWTYEYGYWGQGTQVTVSS	high polyreactivity
QVQLVESGGGLVQAGGSLRLSCAASGRIFWRYAMGWYRQAPGKERELVAAITGRTGSTNYADSVKGRFTISRDNANNTVYLQMNSLKREDTAVYYCAAAHHRWTGLFPSGYEFDYWGQGTQVTVSS	low polyreactivity
QVQLVESGGGLVQAGGSLRLSCAASGRIFWSYPMGWYRQAPGKERELVAAITWRTGRTYYADSVKGRFTISRDNAKNTVYLQMNSLKPEDTAVYYCAAEGYLWGQSYNGLNYDSWGQGTQVTVSS	low polyreactivity
QVQLVESGGGLVQAGGSLRLSCAASGRIFWTYAMGWYRHAPGKERELVAVISIGGTTYYADTVKGRFTISRDNAKNTVYLQMNSLKPEDTAVYYSAAPPSNATGFLSYDYWGQGTQVTVSS	low polyreactivity
QVQLVESGGGLVQAGGSLRLSCAASGRIFWVYAMGGYRQAPGKERELVAAINTSVGRTHYADSVKGRFTISRDNAKNTVYLQMNSLKPEDTAVYYCAADVKRYGWEYGYWGQGTQVTVSS	low polyreactivity
QVQLVESGGGLVQAGGSLRLSCAASGRIFWVYAMGWSRQAPGKERERVAAITWRGVSTYFADSVKGRFTISRDNAKNTVYLQMNSLKPEDTAVYYCAVSLYGYSGNYGPYWYDYWGQGTQVTVSS	low polyreactivity
QVQLVESGGGLVQAGGSLRLSCAASGRIFWYNAMGWSRQAPGKERELVAAISSIDGTTYYADSLKGRFTISRDNAKNTFYLQMNSLKPEDTAVYYCAAEDPADQYDYWGQGTQVTVSS	high polyreactivity
QVQLVESGGGLVQAGGSLRLSCAASGRIFWYNAMGWSRQAPGKESELVAAISWRGSRTYYADSVKGRFTISRDNAKNTVYLQMNSLKPEDTAVYYCAADPDVYAYYGYDYWGQGTQVTVSS	high polyreactivity
QVQLVESGGGLVQAGGSLRLSCAASGRIFWYYGMGWYRQAPGKERELVAAIRGGGSTYYADSVKGRFTISRDNAKNTVYLQMNSLKPEETAVYYCAVDWSRFYNRGGDYWGQGTQVTVSS	high polyreactivity
QVQLVESGGGLVQAGGSLRLSCAASGRIFYANAMGWYRQAPGKERELVAAISQSGGSTFYADSVKGRFTISRDNAKNTVYLQMNSLKPEDTAVYYCATEYYGPVYDLDYDYWGQGTQVTVSS	low polyreactivity
QVQLVESGGGLVQAGGSLRLSCAASGRIFYANAMGWYRQAPGKERELVAAISSGGSTYYADSVKGRFTISRDNAKNTVYLQMNSLKPEDTAVYYCAVYTHKKVRPEYDYWGQGTQVTVSS	low polyreactivity
QVQLVESGGGLVQAGGSLRLSCAASGRIFYANAMGWYRQAPGKERELVAAISWSGGSTYYADSVKGRFTISRDNAKNTVYLQMNSLKPEDTAVYYCNALGRSYRSRRYDYWGQGTQVTVSS	high polyreactivity
